Measurements as given in patent publication US20030037355, “Methods and compositions to modulate expression in plants” (published 2003).

B1: AP3 endogenous target site (dsDNA)
DNA 1: GATGGAGTTGAAGAAGTA
DNA 2: TACTTCTTCAACTCCATC
B2: c5p3-g (dsDNA)
DNA: GGCTCTGCTCATCCCACTACGGGTTTTCCCGTAGTGGGATGAGCAGAGCC
B3: NRI-2 (dsDNA)
DNA: GGTGCGGCGACTGCAGCAGCGGGTTTTCCCGCTGCTGCAGTCGCCGCACC
B4: m34 hairpin oligo (dsDNA)
DNA: GGAGCCAACTACTACGGCTCCCTCACCGGGTTTTCCCGGTGAGGGAGCCGTAGTAGTTGGCTCC
B5: m4 endogenous MIPS target site (dsDNA)
DNA 1: GGTGAGGGAGCCGTAGTA
DNA 2: TACTACGGCTCCCTCACC
B6: B3c2 (dsDNA)
DNA: GGACCCACCGCGTCCCCTCCGGGTTTTCCCGGAGGGGACGCGGTGGGTCC

Columns and labels:
SID-ZFPAp3 = SID-ZFPAp3 (artificial); test: cell_activity; endogenous AP3, transgenic Arabidopsis ND0052-2e; 5 fold in ND0052-257; details: tags: SID
SID-ZFPAp3 (artificial), sequence (chain, as listed by the source): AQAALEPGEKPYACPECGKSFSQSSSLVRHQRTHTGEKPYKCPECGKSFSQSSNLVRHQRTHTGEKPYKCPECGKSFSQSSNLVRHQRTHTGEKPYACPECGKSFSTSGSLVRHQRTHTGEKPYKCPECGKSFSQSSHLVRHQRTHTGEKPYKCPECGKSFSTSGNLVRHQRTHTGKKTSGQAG

[1] = target: ZFPm2 six-finger zinc finger protein (Sp1C framework) (artificial); test: ELISA, 15.5 ug/ml protein, non-target; details: tags: MBP fusion (pMAL-C2), E. coli, hairpin
ZFPm2 six-finger zinc finger protein (Sp1C framework) (artificial), sequence (chain, as listed by the source): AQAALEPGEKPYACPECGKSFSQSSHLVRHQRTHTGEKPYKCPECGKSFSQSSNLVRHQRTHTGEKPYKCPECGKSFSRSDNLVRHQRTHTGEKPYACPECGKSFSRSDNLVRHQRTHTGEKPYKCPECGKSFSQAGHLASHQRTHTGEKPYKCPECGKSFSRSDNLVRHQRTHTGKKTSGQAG
Procedure: (§1) Coat ELISA plates (Costar 3690) with streptavidin. Use 25 ul/well of 8 ug/ml streptavidin in PBS. Incubate at 37° C. for 1 hr. Wash 2× with dH2O. Bind wells with 25 ul/well of 4 ng/ul biotinylated target oligonucleotide in PBS. Incubate at 37° C. for 1 hr. Wash 2× with dH2O. Block with 175 ul/well of 3% BSA in Zn Buffer A. Incubate at 37° C. for 1 hr. Tap plates dry. Perform 1:2 serial dilutions of extract in Binding Buffer (1%BSA, 5 mM DTT, .12 ug/ul Salmon Sperm DNA in ZnBA). Usually from 1:4 to 1:512 for multi-target ELISA or 1:4 to 1:32 for screening clones for specific DNA binding activity. Incubate 1 hr at room temperature. Wash 8× with dH2O. Add primary antibody: 25 ul/well of 1:1000 dilution of mouse anti-MBP (Sigma M-6295) in 1%BSA ZnBA (no DTT). Incubate 30 min at room temperature. Wash 8× with dH2O. Add secondary antibody: 25 ul/well of 1:1000 dilution of goat anti-mouse/Alkaline Phosphatase (Pierce 31324) in 1%BSA ZnBA (no DTT). Incubate 30 min at room temperature. Wash 8× with dH2O. Develop with 25 ul developer (1 tablet of Sigma 104 Phosphatase Substrate (Sigma 104-105)/5 ml AP Developing Buffer [100 ml diethanolamine+0.05 g MgCl2+97.5 Sodium Azide, adjust to 500 ml with ddH2O, pH 9.88]). Incubate at room temperature for 5-60 min until color reaction is yellow. Read A405 with a plate reader.
(§2) To evaluate the specificity of new zinc finger protein, the affinity of each protein was determined for binding to the target sequence and several non-target sequences at appropriate protein concentration. For example, to protein ZFPm1 and ZFPm2, the non-target oligoes are: Oligo m34 (SEQ ID NO:20), Oligo Ap3 (SEQ ID NO:21), NRI-1 (SEQ ID NO:22), NRI-2 (SEQ ID NO:23), hHD-I (SEQ ID NO:24), hHD-II (SEQ ID NO:25), c5cl-g (SEQ ID NO:26), c5p3-g (SEQ ID NO:27), B3c2 (SEQ ID NO:28), and e2c-g (SEQ ID NO:29). Similarly, to protein ZFPm3 and ZFPm4, the non-target oligoes are Oligo m12 (SEQ ID NO:19), oligo Ap3 (SEQ ID NO:21), and the eight other oligoes. To protein ZFPAp3, the non-target oligoes are Oligo m12, oligo m34 (SEQ ID NO:20), and the eight other oligoes. The affinity reading for target oligo was further normalized to the no oligo control which has the least affinity.

[2] = target: T1, ZFPm4 six-finger zinc finger protein (Sp1C framework) (artificial); test: ELISA, 15.5 ug/ml protein, non-target; details: tags: MBP fusion (pMAL-C2), E. coli; label: 5'-biotin; hairpin
Procedure: as §1, §2

[3] = target: ZFPAp3 six-finger zinc finger protein (Sp1C framework) (artificial); test: ELISA, 31.0 ug/ml protein, non-target; details: tags: MBP fusion (pMAL-C2), E. coli, hairpin
Procedure: as §1, §2

[4] = target: ZFPm1 six-finger zinc finger protein (Sp1C framework) (artificial); test: ELISA, 31.0 ug/ml protein, non-target; details: tags: MBP fusion (pMAL-C2), E. coli, hairpin
ZFPm1 six-finger zinc finger protein (Sp1C framework) (artificial), sequence (chain, as listed by the source): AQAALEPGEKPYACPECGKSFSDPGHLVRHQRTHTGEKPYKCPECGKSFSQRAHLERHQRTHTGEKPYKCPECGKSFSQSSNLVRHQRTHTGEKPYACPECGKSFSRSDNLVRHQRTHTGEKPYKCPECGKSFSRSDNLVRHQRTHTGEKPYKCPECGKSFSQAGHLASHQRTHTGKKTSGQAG
Procedure: as §1, §2

[5] = target: T2, ZFPm3 six-finger zinc finger protein (Sp1C framework) (artificial); test: ELISA, 1.9 ug/ml protein, non-target; details: tags: MBP fusion (pMAL-C2), E. coli; label: 5'-biotin; hairpin
T2 sequence (chain, as listed by the source): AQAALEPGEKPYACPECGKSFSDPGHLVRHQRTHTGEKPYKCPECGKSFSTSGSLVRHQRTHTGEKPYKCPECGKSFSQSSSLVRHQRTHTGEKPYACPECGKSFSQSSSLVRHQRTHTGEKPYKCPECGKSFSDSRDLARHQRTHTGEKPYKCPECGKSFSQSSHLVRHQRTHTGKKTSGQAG
Procedure: as §1, §2

[6] = target: T2, ZFPm3 six-finger zinc finger protein …; test: ELISA, 1.9 ug/ml protein; details: tags: MBP fusion (pMAL-C2), E. coli; label: 5'-biotin (ELISA); 32P (gel shift); hairpin
Procedure: as §1, with “Develop with 25 ul developer (1 tablet of Sigma 104 Phosphatase Substrate (Sigma 104-105)/5 ml AP Developing Buffer [100 ml diethanolamine+0.05 g MgCl2+97.5 Sodium Azide, adjust to 500 ml with ddH2O, pH 9.88]). Incubate at room temperature for 5-60 min until color reaction is yellow.” left out
(§3) To evaluate the specificity of new zinc finger protein, the affinity of each protein was determined for binding to the target sequence and several non-target sequences at appropriate protein concentration. […] The affinity reading for target oligo was further normalized to the no oligo control which has the least affinity.

[7] = target: T1, ZFPm4 six-finger zinc finger protein …; test: ELISA, 15.5 ug/ml protein; details: tags: MBP fusion (pMAL-C2), E. coli; label: 5'-biotin (ELISA); 32P (gel shift); hairpin
Procedure: as §1, with “Develop with 25 ul developer (1 tablet of Sigma 104 Phosphatase Substrate (Sigma 104-105)/5 ml AP Developing Buffer [100 ml diethanolamine+0.05 g MgCl2+97.5 Sodium Azide, adjust to 500 ml with ddH2O, pH 9.88]). Incubate at room temperature for 5-60 min until color reaction is yellow.” left out
as §3

[8] = target: T2, ZFPm3 six-finger zinc finger protein …; test: EMSA; Zn Buffer A, 10% glycerol, 0.8% BSA, salmon sperm DNA, room temp; details: tags: MBP fusion (pMAL-C2), E. coli; label: 5'-biotin (ELISA); 32P (gel shift); hairpin
Procedure: (§4) The affinity of the purified six-finger proteins was measured using gel shift assay. The target oligos used in the ELISA assays were radioactively labeled using [γ32P]-ddATPk and terminal transferase. Ten serial dilutions of 1:3 with the purified protein (starting with ˜1 mg/ml) in binding buffer (1 pM labeled oligo, 10% Glycerol, 0.8% BSA, 0.1 ug/ul salmon sperm DNA in Zn Buffer A) were performed. The ZFP was allowed to bind at room temperature for 1 hr. The samples were then run on 5-6% non-denaturing PAGE gel in TBE. The gel was dried and exposed with Phosphoimager. The affinity (Kd) of the ZFP was calculated from this gel. The Kd value is the concentration of the protein at which half of the labeled oligo is shifted to a higher molecular weight on the gel by binding to the ZFP. […] Most of these affinities compare favorably with the existed 6 finger proteins.

[9] = target: T1, ZFPm4 six-finger zinc finger protein …; test: as above; details: tags: MBP fusion (pMAL-C2), E. coli; label: 5'-biotin (ELISA); 32P (gel shift); hairpin
Procedure: as §4

ZFPm4-VP64 = ZFPm4-VP64 (artificial); test: cell_activity; endogenous MIPS in maize HE89 protoplasts; details: tags: VP64
Description: A maize type II cell line HE89 was used to evaluate the ZFPmips-effector fusion constructs function (FIG. 22). Protoplasts from HE89 suspension cells were isolated and transformed using standard procedures (Chourey and Zurawski, 1981). The activation constructs pND3015, pND3023, pND3024, and pND3016 were transformed into freshly prepared protoplasts. The transcription level of MIPS gene was detected through quantitative PCR. With pND3016 (ZFPm4-VP64 activation constructs), at least 2-fold of activation is detected (FIG. 23). We also measured phytic acid concentration in maize tissues that were transformed by the activation construct of pND3016.

[10] = label: 5'-biotin (ELISA), 32P (gel shift)

| Binder | binding signal ([1]; label: 5'-biotin) | binding signal [2] | binding signal ([3]; label: 5'-biotin) | binding signal ([4]; label: 5'-biotin) | binding signal [5] | also measured |
| --- | --- | --- | --- | --- | --- | --- |
| B1 | – | – | – | – | – | activity (SID-ZFPAp3): 46 fold repression |
| B2 | 3 fold over no oligo | 2 fold over no oligo | 2 fold over no oligo | 3 fold over no oligo | 3 fold over no oligo | – |
| B3 | 2 fold over no oligo | 3 fold over no oligo | 4 fold over no oligo | 4 fold over no oligo | 6 fold over no oligo | – |
| B4 | – | – | – | – | – | binding signal [6]: 13 fold over no oligo; binding signal [1, 10]: 13 fold over no oligo; binding signal [3, 10]: 10 fold over no oligo; binding signal [4, 10]: 5 fold over no oligo; binding signal [7]: 16 fold over no oligo; Kd [8]: 0.18 nM; Kd [9]: 0.25 nM |
| B5 | – | – | – | – | – | activity (ZFPm4-VP64): ≥ 2 fold activation |
| B6 | 4 fold over no oligo | 5 fold over no oligo | 3 fold over no oligo | 4 fold over no oligo | 3 fold over no oligo | – |
